Assay results taken from patent US20110263485A1 (University of California, published 2011).

B1: C37-linker-CD4M33C1F23 (designed binder)
chain: HTTWMEWDREINNYTSLIHSLIEESQNQQEKNEQELLSSSGGGGSGGGGSSSSCNLHFCQLRCKSLGLLGKCAGSFCACV
B2: C37(Q652L) (N-acetylated, C-term amidated) (peptide)
peptide: Ac-HTTWMEWDREINNYTSLIHSLIEESQNLQEKNEQELL-NH2

Columns and labels:
Test in all cases: cell-based or functional assay
[1] = target: HIV-1 ADA (R5) env (gp120 and gp41) (HIV-1 strain ADA)
[2] = target: HIV-1 JRFL (R5) env (gp120 and gp41) (HIV-1 strain JRFL)
[3] = target: HIV-1 HXB2 env (X4) (gp120 and gp41) (HIV-1 strain HXB2, UniProt P04578 33-856; P04578 33-856)
[4] = target: HIV-1 ADA (R5) env (gp120 and gp41) (HIV-1 strain ADA); remark: listed apart in the source

| Binder | Inhibition of HIV single round pseudovirus in TZM-bl cells, ADA (R5), IC50 [1] [nM] | Inhibition of HIV single round pseudovirus in TZM-bl cells, ADA (R5), IC90 [1] [nM] | Inhibition of HIV single round pseudovirus in TZM-bl cells, JRFL (R5), IC50 [2] [nM] | Inhibition of HIV single round pseudovirus in TZM-bl cells, JRFL (R5), IC90 [2] [nM] | X4 fusion assay IC50 [3] [nM] | R5 fusion assay IC50 [4] [nM] | R5 fusion with competition IC50 [4] [nM] | R5 fusion with wash-out on ADA cells IC50 [4] [nM] | R5 fusion with wash-out on P5L cells IC50 [4] [nM] |
| --- | --- | --- | --- | --- | --- | --- | --- | --- | --- |
| B1 | 2.33 | 17.3 | 2.25 | 24.3 | 2.3 | 6.83 | 7.78 | 77.8 | 561 |
| B2 | 114 |  |  |  |  | 28.2 |  |  |  |
